Source: the supplement of paper PMC12338614
± gives the uncertainty stated by the source.

B1: library; numbered along this chain (parent)
chain: MEVVDPQQLGMFTEGELMSVGMDTFIHRIDSTEVIYQPRRKRAKLIGKYLMGDLLGEGSYGKVKEVLDSETLCRRAVKILKKKKLRRIPNGEANVKKEIQLLRRLRHKNVIQLVDVLYNEEKQKMYMVMEYCVCGMQEMLDSVPEKRFPVCQAHGYFCQLIDGLEYLHSQGIVHKDIKPGNLLLTTGGTLKISDLGVAEALHPFAADDTCRTSQGSPAFQPPEIANGLDTFSGFKVDIWSAGVTLYNITTGLYPFEGDNIYKLFENIGKGSYAIPGDCGPPLSDLLKGMLEYEPAKRFSIRQIRQHSWFRKKHPPAEAPVPIPPSPDTKDRWRSMTVVPYLEDLHGADEDEDLFDIEDDIIYTQDFTVPGQVPEEEASHNGQRRGLPKAVCMNGTEAAQLSTKSRAEGRAPNPARKACSASSKIRRLSACKQQ

Variants of: B1
Assay: STK11 functional score (HeLa growth suppression), rescaled enrichment; synonymous median = 1, nonsense median = 0 (normalised score)
Conditions: with HeLa; variant type: missense
Summary of the method: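 Codon-randomised (POPCode) libraries of codon-optimised STK11 were integrated by Bxb1 at an AAVS1 landing pad in HeLa, in three regions each transfected three times. Integrants (BFP-negative, mCherry-positive) were FACS-sorted 4–5 days after electroporation and grown about two weeks; tiled gDNA amplicons were sequenced on NextSeq (~2 million reads per tile). The functional score is the wild-type-corrected post/pre-selection log ratio, rescaled to synonymous and nonsense medians, merged over codons and replicate transfections, with bootstrapped error.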

STK11 functional score of substitutions, site by site:
F148: A 0.105 ± 0.081 | K -0.033 ± 0.18 | L 0.829 ± 0.095 | H -0.00697 ± 0.084
M129: L 0.635 ± 0.09 | S 0.731 ± 0.16 | N 0.571 ± 0.13 | W 0.743 ± 0.079 | V 0.303 ± 0.084 | R 1.13 ± 0.28 | G 0.986 ± 0.11 | K 1.35 ± 0.58 | I 0.692 ± 0.11 | T 0.97 ± 0.14 | F 0.993 ± 0.47 | D 1.37 ± 0.36 | C 1.26 ± 0.13
R147: C 1.26 ± 0.076 | Y 1.47 ± 0.14 | A 0.87 ± 0.19 | M 1.06 ± 0.58 | P 0.188 ± 0.08 | T -0.149 ± 0.087 | D -0.33 ± 0.084 | W 0.777 ± 0.16 | I 1.22 ± 0.2 | V 0.547 ± 0.098 | E -0.0954 ± 0.2 | S 0.855 ± 0.32 | F 0.668 ± 0.1 | L 0.461 ± 0.097 | G 1.07 ± 0.086 | Q 0.506 ± 0.12
M136: Q 0.0397 ± 0.082 | S 0.0685 ± 0.09 | L 0.989 ± 0.083 | R -0.124 ± 0.086 | W -0.224 ± 0.078 | G -0.14 ± 0.082 | D -0.0676 ± 0.092 | P -0.132 ± 0.082 | Y -0.238 ± 0.083 | N -0.15 ± 0.087 | E 0.000415 ± 0.084 | H -0.214 ± 0.081 | A 0.691 ± 0.12 | K 0.279 ± 0.63
E130: C 0.373 ± 0.08 | G 0.45 ± 0.39 | F 0.993 ± 0.35 | S 1.4 ± 0.09 | Y 0.104 ± 0.12 | Q 0.94 ± 0.3 | L 0.308 ± 0.083 | M 0.0424 ± 0.11 | I 0.376 ± 0.28 | W -0.0647 ± 0.079 | R 0.369 ± 0.14 | T 1.33 ± 0.34 | P 0.365 ± 0.27 | K 1.36 ± 0.14 | V 0.458 ± 0.082
C134: Y 1.15 ± 0.92 | G 0.564 ± 0.14 | T 1.61 ± 0.28 | V 0.604 ± 0.11 | F 0.425 ± 0.078 | E 1.45 ± 0.2 | S 1.49 ± 0.081 | P 1.62 ± 0.19 | Q 0.746 ± 0.38 | A 1.1 ± 0.081 | W 0.131 ± 0.097 | L 0.479 ± 0.083 | I 1.42 ± 0.084 | M 0.248 ± 0.08 | R 1.52 ± 0.09
Y131: G 0.769 ± 0.28 | W 0.739 ± 0.093 | R 0.218 ± 0.086 | I 1.2 ± 0.3 | Q -0.0871 ± 0.078 | S 1.18 ± 0.22 | E 0.174 ± 0.082 | A 0.676 ± 0.19 | D 0.0798 ± 0.094 | C 0.51 ± 0.24 | L 1.36 ± 0.18 | V 0.785 ± 0.087 | M -0.137 ± 0.13 | H 1.2 ± 0.44
D141: W 0.69 ± 0.12 | F 1.52 ± 0.12 | G 1.2 ± 0.36 | M 1.22 ± 0.14 | S 1.21 ± 0.081 | P -0.241 ± 0.11 | A 1.01 ± 0.15 | E 0.883 ± 0.17 | T 0.00893 ± 0.31 | V 1.18 ± 0.36 | L 1.63 ± 0.23
P149: M 1.02 ± 0.2 | G 0.926 ± 0.23 | R 0.413 ± 0.2 | I 0.249 ± 0.1 | E 1.52 ± 0.19 | C 0.957 ± 0.33 | D 0.598 ± 0.17 | W 0.608 ± 0.17 | S 0.988 ± 0.13 | N 1.38 ± 0.22 | L 0.561 ± 0.1 | A 1.18 ± 0.12 | Y -0.0036 ± 0.19 | V 0.694 ± 0.095
K146: W 0.507 ± 0.098 | A 1.29 ± 0.39 | R 1.58 ± 0.39 | N 1.16 ± 0.26 | S 1.33 ± 0.12 | L 1.13 ± 0.13 | I 0.185 ± 0.12 | D 0.483 ± 0.13 | H 1.49 ± 0.46 | V 0.152 ± 0.098 | G 0.814 ± 0.28 | Q 1.52 ± 0.51 | E 1.14 ± 0.31
V128: W 0.804 ± 0.43 | S 0.466 ± 0.12 | Y 1.41 ± 0.23 | Q 1.22 ± 0.12 | R 0.15 ± 0.084
V143: H 1.44 ± 0.18 | L 1.17 ± 0.15 | Q 0.751 ± 0.082 | Y 1.52 ± 0.22 | D 1.46 ± 0.33 | P -0.133 ± 0.082 | F 1.01 ± 0.28 | R 1.29 ± 0.22 | A 1.34 ± 0.084 | T 1.59 ± 0.19 | C 1.26 ± 0.22 | S 1.44 ± 0.36 | W 0.622 ± 0.081 | N 1.68 ± 0.4 | G 1.33 ± 0.077 | I 1.09 ± 0.16
Q137: R 0.73 ± 0.12 | Y 0.779 ± 0.3 | E 0.452 ± 0.43 | L 1.27 ± 0.084 | V 1.27 ± 0.12 | W 1.25 ± 0.087 | I 0.934 ± 0.38 | P 1.19 ± 0.32 | S 1.42 ± 0.23 | D 0.482 ± 0.11 | K 0.752 ± 0.41 | H 0.922 ± 0.5 | A 1.02 ± 0.15 | M 1.54 ± 0.059 | T 1.6 ± 0.28 | G 0.734 ± 0.14 | N 1.62 ± 0.28
